Test results as given in PMC11988454, “Discovery of synthetic small molecules targeting the central regulator of Salmonella pathogenicity” (Science Advances, 2025).

Legend:
HilD = target: T1, HilD (Salmonella enterica serovar Typhimurium, UniProt P0CL08 1-309); experiment: EMSA; no C26; conditions: protein: recombinant; tags: His6-SUMO removed by SUMO protease; chain copies: 2; label: 5'-Cy5 on strand 1; blunt
T1 sequence: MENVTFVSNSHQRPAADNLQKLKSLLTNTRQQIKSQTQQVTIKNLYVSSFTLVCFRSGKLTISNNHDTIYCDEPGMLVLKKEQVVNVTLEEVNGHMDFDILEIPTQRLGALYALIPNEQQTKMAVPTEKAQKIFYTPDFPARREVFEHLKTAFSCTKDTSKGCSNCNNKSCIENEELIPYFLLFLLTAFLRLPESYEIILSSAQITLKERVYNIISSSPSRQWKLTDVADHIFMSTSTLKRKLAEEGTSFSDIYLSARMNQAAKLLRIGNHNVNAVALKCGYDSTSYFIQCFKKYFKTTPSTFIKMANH

HilC = target: T2, HilC (Salmonella enterica serovar Typhimurium, UniProt E1WAB2 1-295); experiment: EMSA; no C26; conditions: protein: recombinant; tags: N-terminal His6-TEV, cleaved by TEV protease; chain copies: 2; label: 5'-Cy5 on strand 1; blunt
T2 sequence: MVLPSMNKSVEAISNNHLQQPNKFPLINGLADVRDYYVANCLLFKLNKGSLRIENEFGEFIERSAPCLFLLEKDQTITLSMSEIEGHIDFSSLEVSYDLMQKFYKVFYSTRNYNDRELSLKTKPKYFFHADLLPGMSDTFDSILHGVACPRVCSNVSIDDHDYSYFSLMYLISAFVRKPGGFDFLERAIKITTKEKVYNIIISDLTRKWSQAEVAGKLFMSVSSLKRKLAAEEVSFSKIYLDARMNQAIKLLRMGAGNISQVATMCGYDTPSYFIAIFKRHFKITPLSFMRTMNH

HilD Y46A = HilD Y46A (Salmonella enterica serovar Typhimurium, UniProt P0CL08 1-309, Y46A); experiment: EMSA; no C26; affinity comparable to WT; conditions: protein: recombinant; tags: His6-SUMO removed by SUMO protease; chain copies: 2; label: 5'-Cy5 on strand 1; blunt
HilD L45A = HilD L45A (Salmonella enterica serovar Typhimurium, UniProt P0CL08 1-309, L45A); experiment: EMSA; no C26; affinity comparable to WT; conditions: protein: recombinant; tags: His6-SUMO removed by SUMO protease; chain copies: 2; label: 5'-Cy5 on strand 1; blunt
HilD I100A = HilD I100A (Salmonella enterica serovar Typhimurium, UniProt P0CL08 1-309, I100A); experiment: EMSA; no C26; affinity comparable to WT; conditions: protein: recombinant; tags: His6-SUMO removed by SUMO protease; chain copies: 2; label: 5'-Cy5 on strand 1; blunt
HilD Y212A = HilD Y212A (Salmonella enterica serovar Typhimurium, UniProt P0CL08 1-309, Y212A); experiment: EMSA; no C26; affinity comparable to WT; conditions: protein: recombinant; tags: His6-SUMO removed by SUMO protease; chain copies: 2; label: 5'-Cy5 on strand 1; blunt

Measured: binding result

B1: PhilA A1 62 bp (dsDNA)
DNA 1: GGGAGTAAAGAAAAGACGATATCATTATTTTGCAAAAAAATATAAAAATAAGCGCACCATTA
DNA 2: TAATGGTGCGCTTATTTTTATATTTTTTTGCAAAATAATGATATCGTCTTTTCTTTACTCCC
binds: all assays above
